Measurements: the supplement of paper PMC9112550, “Optimization of the antimicrobial peptide Bac7 by deep mutational scanning” (BMC Biology, 2022)

Test system: Escherichia coli TOP10
Experiment: shrunken log2 fold change of peptide-encoding DNA abundance (4.5 h post-induction vs induction); higher = less antimicrobial activity (less host growth inhibition)
Settings: time post-induction: 4.5 h; library: site-saturation at positions 5, 18, 19, 20
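Also: peptides expressed intracellularly from a pBAD plasmid library in pooled LB shake-flask culture, induced with 0.3% L-arabinose, DNA abundance read by NGS, three biological replicates, DESeq2 with apeglm shrinkage.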

Sequence	shrunken log2 fold change
RRIRDRPPRLPRPRPRPKECPRP	0.184
RRIRLRPPRLPRPRPRPHDTPRP	-0.18
RRIRSRPPRLPRPRPRPCPMPRP	-0.337
RRIRLRPPRLPRPRPRPCFGPRP	-0.0493
RRIRQRPPRLPRPRPRPALCPRP	0.171
RRIRFRPPRLPRPRPRPPYWPRP	0.191
RRIRGRPPRLPRPRPRPYDSPRP	0.0118
RRIRRRPPRLPRPRPRPYDEPRP	-0.302
RRIRFRPPRLPRPRPRPMAIPRP	-0.226
RRIRFRPPRLPRPRPRPPHKPRP	-0.027
RRIRIRPPRLPRPRPRPWVVPRP	-0.236
RRIRLRPPRLPRPRPRPNPRPRP	0.304
RRIRVRPPRLPRPRPRPGEPPRP	0.043
RRIRIRPPRLPRPRPRPNCMPRP	-0.287
RRIRPRPPRLPRPRPRPVKEPRP	0.0267
RRIRSRPPRLPRPRPRPGMRPRP	0.789
RRIRYRPPRLPRPRPRPRLHPRP	-0.415
RRIRWRPPRLPRPRPRPWQAPRP	0.00325
RRIRQRPPRLPRPRPRPPSHPRP	0.0871
RRIRYRPPRLPRPRPRPYGWPRP	-0.187
RRIRPRPPRLPRPRPRPFPLPRP	-0.332
RRIRFRPPRLPRPRPRPFLRPRP	-0.313

Sequence	shrunken log2 fold change
RRIRSRPPRLPRPRPRPCHHPRP	-0.179
RRIRRRPPRLPRPRPRPSGDPRP	0.233
RRIRIRPPRLPRPRPRPFGIPRP	-0.972
RRIRYRPPRLPRPRPRPIQAPRP	0.107
RRIRFRPPRLPRPRPRPMLTPRP	-0.351
RRIRVRPPRLPRPRPRPVWCPRP	0.423
RRIRYRPPRLPRPRPRPSRGPRP	-0.0776
RRIRMRPPRLPRPRPRPCDLPRP	0.041
RRIRWRPPRLPRPRPRPMNWPRP	0.0484
RRIRVRPPRLPRPRPRPSFLPRP	-0.666
RRIRTRPPRLPRPRPRPLGFPRP	0.046
RRIRHRPPRLPRPRPRPKYPPRP	0.0718
RRIRKRPPRLPRPRPRPAPIPRP	0.716
RRIRGRPPRLPRPRPRPRMHPRP	0.997
RRIRMRPPRLPRPRPRPNSAPRP	0.0568
RRIRYRPPRLPRPRPRPSCSPRP	-0.972
RRIRSRPPRLPRPRPRPGPQPRP	0.885
RRIRIRPPRLPRPRPRPLENPRP	-0.309
RRIRQRPPRLPRPRPRPPTKPRP	0.209
RRIRKRPPRLPRPRPRPHVQPRP	-0.0829
RRIRERPPRLPRPRPRPHLVPRP	-0.125
RRIRLRPPRLPRPRPRPDQPPRP	-0.129

Sequence	shrunken log2 fold change
RRIRWRPPRLPRPRPRPIGEPRP	0.0833
RRIRHRPPRLPRPRPRPAVPPRP	0.0133
RRIRRRPPRLPRPRPRPEPEPRP	0.837
RRIRYRPPRLPRPRPRPSNPPRP	-0.512
RRIRPRPPRLPRPRPRPPWAPRP	1.32
RRIRLRPPRLPRPRPRPPAMPRP	0.42
RRIRQRPPRLPRPRPRPFRQPRP	-0.148
RRIRVRPPRLPRPRPRPGFPPRP	0.141
RRIRERPPRLPRPRPRPEDCPRP	-0.104
RRIRGRPPRLPRPRPRPYVLPRP	-0.114
RRIRHRPPRLPRPRPRPYNFPRP	-0.078
RRIRKRPPRLPRPRPRPTYYPRP	-0.442
RRIRPRPPRLPRPRPRPVQYPRP	-0.0191
RRIRKRPPRLPRPRPRPMPSPRP	0.0546
RRIRRRPPRLPRPRPRPKHTPRP	0.32
RRIRIRPPRLPRPRPRPPDMPRP	-0.16
RRIRMRPPRLPRPRPRPPEEPRP	2.13
RRIRKRPPRLPRPRPRPGIGPRP	0.39
RRIRDRPPRLPRPRPRPVARPRP	0.56
RRIRTRPPRLPRPRPRPEHLPRP	-0.00973
RRIRFRPPRLPRPRPRPYAPPRP	-0.496
RRIRQRPPRLPRPRPRPCPPPRP	0.00708

Sequence	shrunken log2 fold change
RRIRRRPPRLPRPRPRPLTKPRP	0.132
RRIRQRPPRLPRPRPRPVYLPRP	-0.206
RRIRIRPPRLPRPRPRPRQRPRP	0.211
RRIRGRPPRLPRPRPRPPWVPRP	0.753
RRIRERPPRLPRPRPRPCGIPRP	0.00383
RRIRCRPPRLPRPRPRPQGFPRP	-0.0235
RRIRDRPPRLPRPRPRPFDFPRP	0.122
RRIRTRPPRLPRPRPRPEMNPRP	0.00876
RRIRYRPPRLPRPRPRPGRWPRP	0.475
RRIRYRPPRLPRPRPRPIRRPRP	-0.0923
RRIRMRPPRLPRPRPRPSQRPRP	0.158
RRIRTRPPRLPRPRPRPPKHPRP	0.157
RRIRIRPPRLPRPRPRPWAGPRP	-0.291
RRIRDRPPRLPRPRPRPTERPRP	0.463
RRIRCRPPRLPRPRPRPKKVPRP	-0.00128
RRIRNRPPRLPRPRPRPETSPRP	0.24
RRIRLRPPRLPRPRPRPMSMPRP	0.125
RRIRNRPPRLPRPRPRPVHPPRP	-0.0892
RRIRHRPPRLPRPRPRPDAHPRP	-0.119
RRIRRRPPRLPRPRPRPPWAPRP	0.729
RRIRDRPPRLPRPRPRPYDSPRP	-0.0305
RRIRHRPPRLPRPRPRPTLGPRP	-0.0595

Sequence	shrunken log2 fold change
RRIRERPPRLPRPRPRPGSKPRP	-0.129
RRIRCRPPRLPRPRPRPTELPRP	-0.106
RRIRLRPPRLPRPRPRPWCVPRP	-0.35
RRIRFRPPRLPRPRPRPYFTPRP	-1.09
RRIRMRPPRLPRPRPRPSFNPRP	-0.535
RRIRFRPPRLPRPRPRPHMQPRP	-0.725
RRIRNRPPRLPRPRPRPHYCPRP	-0.481
RRIRTRPPRLPRPRPRPKPSPRP	0.335
RRIRLRPPRLPRPRPRPRPWPRP	0.199
RRIRPRPPRLPRPRPRPQYTPRP	-0.813
RRIRVRPPRLPRPRPRPDGRPRP	0.149
RRIRLRPPRLPRPRPRPIMWPRP	-0.0155
RRIRVRPPRLPRPRPRPLDKPRP	0.0163
RRIRTRPPRLPRPRPRPLAVPRP	-0.0185
RRIRTRPPRLPRPRPRPGDHPRP	0.00667
RRIRVRPPRLPRPRPRPYCRPRP	-0.213
RRIRHRPPRLPRPRPRPHYDPRP	-0.257
RRIRQRPPRLPRPRPRPWFPPRP	-0.156
RRIRARPPRLPRPRPRPIRPPRP	0.237
RRIRFRPPRLPRPRPRPMEGPRP	-0.0345
RRIRTRPPRLPRPRPRPVWIPRP	-0.651
